Assay results taken from paper PMC10499821.

Target: Nsp5 (SARS-CoV-2) (UniProt P0DTD1)
Test: fluorescence polarisation

| Binder | Kd [µM] |
| --- | --- |
| TVKFHARTGMIESNR [DLG3_(577–592)] | 7 |
| GASSRLQASLSSSDV [SHROOM2_(403–417)] | 280 |
